Substitutions are numbered along the chain they refer to.
B1: humanized IgG1 anti-MUC1-SEA mAb (HM5 LM4) (antibody, V domains shown)
VH: EIQLVQSGAEVKKPGSSVKVSCKVTGHSITRGSSWHWMRQAPGQGLEWIGYIHYGGGTSYNPSLKSRITITRDTSTNTFYMELSSLRSEDTAFYFCARYSYDITYRWFFDVWGQGTLVTVSS
VL: DIQMTQSPSTLSASVGDRVTITCRASQNIGTSIHWYQQKPGKAPKLLIKYASESISGVPSRFSGSGSGTEFTLTISSLQPDDFATYYCQQNNNWPLTFGQGTKVEIKR
notes: also called Humanized anti-MUC1 SEA IgG1; humanized IgG anti-MUC1-SEA mAb
B2: HM2 LM2 variant of humanized anti-MUC1 antibody SP66 (antibody, V domains shown)
VH: B1 VH with F79A
VL: DIQMTQSPSTLSASVGDRVTITCRASQNIGTSIHWYQQKPGKAPKLLIKRASESISGVPSRFSGSGSGTEFTLTISSLQPDDFATYYCQQNNNWPLTFGQGTKVEVK
notes: Humanized IgG expressed in CHO cells; only variable domains tied to the variant
B3: HM2 LM1 variant of humanized anti-MUC1 antibody SP66 (antibody, V domains shown)
VH: B1 VH with F79A
VL: B2 VL with Y36F
notes: as for B2
B4: HM4 LM2 variant of humanized anti-MUC1 antibody SP66 (antibody, V domains shown)
VH: B1 VH with I68A, I70L
VL: B2 VL
notes: as for B2
B5: HM5 LM2 variant of humanized anti-MUC1 antibody SP66 (antibody, V domains shown)
VH: B1 VH
VL: B2 VL
notes: as for B2
B6: HM5 LM3 variant of humanized anti-MUC1 antibody SP66 (antibody, V domains shown)
VH: B1 VH
VL: B2 VL with R50Y
notes: as for B2
B7: HM4 LM3 variant of humanized anti-MUC1 antibody SP66 (antibody, V domains shown)
VH: B1 VH with I68A, I70L
VL: B2 VL with R50Y
notes: as for B2
B8: HM3 LM2 variant of humanized anti-MUC1 antibody SP66 (antibody, V domains shown)
VH: B1 VH with I68A, I70L, F79A
VL: B2 VL
notes: as for B2

Columns and labels:
[1] = target: T1, human MUC1 on cells (DA3-TM transfectants and human cancer cell lines SKOV3, COLO357, HT29 and others) (human, UniProt P15941 24-1255); assay: flow cytometry, dose-dependent binding on MUC1 positive DA3-TM cells
T1 construct: also called MUC1-SEA; surface MUC1
T1 sequence (P15941 24-1255 limits assumed): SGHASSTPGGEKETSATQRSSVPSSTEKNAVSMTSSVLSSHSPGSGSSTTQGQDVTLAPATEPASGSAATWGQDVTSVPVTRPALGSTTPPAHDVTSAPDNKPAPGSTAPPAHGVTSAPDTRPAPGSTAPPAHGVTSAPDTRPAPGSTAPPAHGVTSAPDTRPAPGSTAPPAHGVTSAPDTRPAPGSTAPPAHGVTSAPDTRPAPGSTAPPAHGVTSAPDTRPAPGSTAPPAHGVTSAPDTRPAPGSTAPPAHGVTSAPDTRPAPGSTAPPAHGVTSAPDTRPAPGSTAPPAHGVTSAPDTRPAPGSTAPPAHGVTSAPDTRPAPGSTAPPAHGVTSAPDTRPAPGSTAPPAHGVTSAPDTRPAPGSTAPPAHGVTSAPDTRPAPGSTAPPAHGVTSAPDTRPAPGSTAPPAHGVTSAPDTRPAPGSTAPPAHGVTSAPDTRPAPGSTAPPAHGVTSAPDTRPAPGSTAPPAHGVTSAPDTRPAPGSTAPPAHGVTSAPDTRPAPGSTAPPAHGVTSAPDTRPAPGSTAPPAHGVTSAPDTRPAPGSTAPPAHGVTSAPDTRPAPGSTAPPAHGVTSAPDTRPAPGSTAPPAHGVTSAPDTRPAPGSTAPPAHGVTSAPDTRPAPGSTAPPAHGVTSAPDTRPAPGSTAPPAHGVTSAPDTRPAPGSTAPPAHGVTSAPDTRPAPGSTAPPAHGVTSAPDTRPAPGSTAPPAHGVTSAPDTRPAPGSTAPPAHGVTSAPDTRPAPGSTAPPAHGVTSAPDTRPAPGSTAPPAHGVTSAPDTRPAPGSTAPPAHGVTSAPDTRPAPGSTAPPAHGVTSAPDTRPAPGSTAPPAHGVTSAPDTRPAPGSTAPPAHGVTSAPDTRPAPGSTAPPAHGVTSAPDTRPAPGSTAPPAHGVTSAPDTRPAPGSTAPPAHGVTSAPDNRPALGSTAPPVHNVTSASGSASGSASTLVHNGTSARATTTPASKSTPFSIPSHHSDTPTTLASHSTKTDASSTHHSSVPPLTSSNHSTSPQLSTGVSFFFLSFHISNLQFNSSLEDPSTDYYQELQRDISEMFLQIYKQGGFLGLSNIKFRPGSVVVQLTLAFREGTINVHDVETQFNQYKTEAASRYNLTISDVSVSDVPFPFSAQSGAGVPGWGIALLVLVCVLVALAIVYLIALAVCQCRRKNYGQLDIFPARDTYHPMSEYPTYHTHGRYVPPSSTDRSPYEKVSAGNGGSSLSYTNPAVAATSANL

[2] = target: T1, human MUC1 on cells (DA3-TM …); assay: flow cytometry on SKOV-3 cells, geometric mean against concentration
[3] = target: T1, human MUC1 on cells (DA3-TM …); assay: flow cytometry on DA3-TM cells; table row 2 of 5, about 11 nM by the matching point in FIG. 3A
[4] = target: T1, human MUC1 on cells (DA3-TM …); assay: flow cytometry on DA3-TM cells; table row 3 of 5, about 3.7 nM by the matching point in FIG. 3A
[5] = target: T1, human MUC1 on cells (DA3-TM …); assay: flow cytometry on DA3-TM cells; table row 4 of 5, about 1.2 nM by the matching point in FIG. 3A
[6] = target: T1, human MUC1 on cells (DA3-TM …); assay: flow cytometry on DA3-TM cells; table row 5 of 5, about 0.4 nM by the matching point in FIG. 3A

| Binder | Kd [1] [nM] | EC50 (read off the curve) [2] [nM] | Geometric Mean : FL6-A [3] | Geometric Mean : FL6-A [4] | Geometric Mean : FL6-A [5] | Geometric Mean : FL6-A [6] |
| --- | --- | --- | --- | --- | --- | --- |
| B1 | 1 | ~3 |  |  |  |  |
| B2 | 3.2 |  | 15000 | 11800 | 6400 | 2860 |
| B3 | 14.5 |  | 10000 | 4900 | 1870 | 727 |
| B4 | 2.1 |  |  |  |  |  |
| B5 | 1.4 |  | 23700 | 21300 | 14600 | 7990 |
| B6 | 0.9 |  |  |  |  |  |
| B7 | 1.5 |  | 22300 | 17600 | 9700 | 5320 |
| B8 | 3.7 |  |  |  |  |  |

Source: US20250041437A1 (SUN PHARMA ADVANCED RESEARCH, published 2025)
